B1: A4-051 (VHH)
VHH: VQLQESGGGLVQPGGSLRLSCAASGSSFVINTMGWYRRAPGKQRELVAAVTRGGSTNYADSVKGRFTISRDNAKNTVYLQMNSLRPEDTAVYYCHVDEVRQSSWTTSNLWGQGTQVTVSS
B2: A4-054 (VHH)
VHH: VQLQESGGGLVQPGGSLRLSCAASGSAFSINTMGWYRQAPGKQRELVAAVTRGGSTNYADSVKGRFTISRDNAKNTVYLQMNSLRPEDTAVYYCHVDEVRQSSWTTSNLWGQGTQVTVSS
B3: A4-056 (VHH)
VHH: VQLQESGGGLVQPGGSLRLSCAASGSAFSINTMGWYRQAPGKQREKVAAVTRGGSTNYADSVKGRFTISRDNAKNTVYLQMNSLRPEDTAVYYCHVDEVRQSSWTTSNLWGQGTQVTVSS
B4: A4-064 (VHH)
VHH: VQLQESGGGLVQSGGSLRLSCAASGRNFSLNTVGWYRQAPGKQRELVATVTSGGGTNYAGSVKGRFTISRDNAKNTVYLQMNSLRPEDTAVYYCHVDEVRESTWTTSNLWGQGTQVTVSS
B5: A4-067 (VHH)
VHH: VQLQESGGGLVQTGGSLRLSCAASGRAFSLNTMGWYRQAPGKWRELVATVTRGGSTNYAGSVKGRFTISRDNTKNTVYLQMNNLRPEDTAVYYCHVDEVRESSWTTSNLWGQGTQVTVSS
B6: A4-068 (VHH)
VHH: VQLQESGGGLVQTGGSLRLSCAASGRAFSLNTMGWYRQAPGKWRELVATVTRGGSTNYAGSVKGRFTISRDNAKNTVYLQMNNLRPEDTAVYYCHVDEVRESSWTTSNLWGQGTQVTVSS
B7: A4-071 (VHH)
VHH: VQLQESGGGAVQAGGSLRLSCAASGSTFSINTMGWYRQAPGKQRELVATVTRGGSTNYGDFVKGRFTISRDNAKNTVYLQMNTLRPEDTAVYYCHLDEVRQSSWTTSNLWGQGTQVTVSS
B8: A4-072 (VHH)
VHH: VQLQESGGGLAQPGGSLRLSCAASGSSFVINTMGWYRQAPGKQREFVATVTRGGSTNYGEFVKGRFTISRDNAKNTVYLQMNSLRPEDTAVYYCHVDELRQSSWTTSNLWGQGTQVTVSS
B9: A4-074 (VHH)
VHH: VQLQESGGGLVQSGGSLRLSCAASGSMFSLNTMGWYRQAPGKQRELVATITRGGGTSYADSVKGRFTISRDNAKNTVYLQMNSLRPEDTAVYYCHVDELRQSSWTTSNLWGQGTQVTVSS
B10: A4-076 (VHH)
VHH: VQLQESGGGLVHSGGSLRLSCAASGSMFSLNTMGWYRQAPGKQRELVATITRGGGTSYADSVKGRFTISRDNAKNTVYLQMNSLRPEDTAVYYCHVDELRQSSWTTSNLWGQGTQVTVSS
B11: A4-087 (VHH)
VHH: VQLQESGGGLVQPGGSLRLSCAASGSRFSLNTMGWYRQAPGKQRELVAAVTRGGNTNYGDFVKGRFTISRDNAKNTVYLQMNSLRPEDTAVYYCHVDELRESSWTTSNLWGQGTQVTVSS
B12: A4-091 (VHH)
VHH: VQLQESGGGLVQPGGSLRLSCAASGSRFSINTMGWYRQRAGKQRELVATVTRDGSTTYANSVKGRFTISRDNAKNTVYLQMNSLRPEDTAVYYCHVDELRQSTWTTSNLWGQGTQVTVSS
B13: A4-094 (VHH)
VHH: VQLQESGGGLVQPGGSLRLSCVASGSIFVINTMGWYRQAPGKQRELVATVTRDGGTNYADSVKGRFTISRDNAKNTVYLQMNSLRPEDTAVYYCHIDEIRESSWTTSNLWGQGTQVTVSS
B14: A4-095 (VHH)
VHH: VQLQESGGGLVQPGGSLRLSCAASGSSFSANTMGWYRQAPGKQRELVATITRGGNTNYGDSVKGRFTISRDNAKDTVYLQMNSLRPEDTAVYYCHIDEIRESTWTTSNLWGQGTQVTVSS
B15: A4-096 (VHH)
VHH: VQLQESGGGLVQPGGSLRLSCIASGSSFSANTMGWYRQAPGKQRELVATITRGGNTNYGDSVKGRFTISRDNAKNTVYLQMNSLRPEDTAVYYCHIDEIRESTWTTSNLWGQGTQVTVSS
B16: A4-097 (VHH)
VHH: VQLQESGGGLVQPGGSLRLSCIASGSIFSANTMGWYRQAPGKQRELVATITRGGNTNYGDSVKGRFTISRDNAKNTVYLQMNTLRPEDTAVYYCHVDEIRESSWTTSNLWGQGTQVTVSS
B17: A4-098 (VHH)
VHH: VQLQESGGGLVQPGGSLRLSCIASGSIFSINTMGWYRQAPGKQRELVATITRGGNTNYGDSVKGRFTISRDNAKNTVYLQMNTLRPEDTAVYYCHVDEIRESSWTTSNLWGQGTQVTVSS
B18: A4-100 (VHH)
VHH: VQLQESGGGLVQPGGSLRLSCAASGSIFVINTMGWYRQAPGKQRELVASLTRGGSTNYADSVKGRFTISRDNDKNTIYLQMNSLRPEDTAVYYCHVDEVRESTWTTSNIWGQGTQVTVSS

Legend:
Assay in all cases: SPR, AAV amine-coupled to CM5 chip;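 note: nanobodies flowed as analyte at seven concentrations spanning 1–100 nM over immobilized AAV (500–800 RU), kinetic constants derived by fitting the binding curves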
AAV8 = target: T1, AAV8 (adeno-associated virus 8)
T1 construct: also called adeno-associated virus serotype 8
Experimental: (§1) AAV was amine-coupled to a CM5 sensor chip at a density of 500-800 response units (RU). Nanobodies were injected at seven concentrations (1-100 nM) with a flow rate of 45 μL/min, and chip regeneration was performed using glycine-HCl (pH 1.5). Binding curves at different nanobody concentrations were used to calculate kinetic parameters (Kₐ, Kd, KD) (Table 2 and FIG. 2).

AAV2 = target: T2, AAV2 (adeno-associated virus 2, UniProt P03135 1-735)
T2 construct: also called adeno-associated virus serotype 2
Experimental: as §1

AAV9 = target: T3, AAV9 (adeno-associated virus 9)
T3 construct: also called adeno-associated virus serotype 9
Experimental: as §1

AAV5 = target: T4, AAV5 (adeno-associated virus 5)
T4 construct: also called adeno-associated virus serotype 5
Experimental: as §1

Row | Binder | Kd (AAV8) [nM] | koff (AAV8) [s⁻¹] | kon (AAV8) [M⁻¹ s⁻¹] | Kd (AAV2) [nM] | koff (AAV2) [s⁻¹] | kon (AAV2) [M⁻¹ s⁻¹] | Kd (AAV9) [nM] | koff (AAV9) [s⁻¹] | kon (AAV9) [M⁻¹ s⁻¹] | Kd (AAV5) [nM] | koff (AAV5) [s⁻¹] | kon (AAV5) [M⁻¹ s⁻¹]
1 | B1 | 791 | 0.00466 | 5890 | 907 | 0.00325 | 3580 | 712 | 0.00477 | 6700 | 748 | 0.00507 | 6780
2 | B2 | 368 | 0.0018 | 4890 | 1060 | 0.00114 |  | 28.9 | 0.00025 | 8660 | 213 | 0.00163 | 7660
3 | B3 | 265 | 0.00779 | 29400 | 224 | 0.00485 | 21600 | 96.9 | 0.00887 | 91500 | 622 | 0.00648 | 10400
4 | B4 | 227 | 0.0017 | 7500 | 75.7 | 0.0005 | 6600 | 420 | 0.00128 | 3050 | 81.8 | 0.00046 | 5620
5 | B5 | 128 | 0.00044 | 3440 | 16 | 3e-05 | 1870 | 106 | 0.00035 | 3320 | 7.14 | 2e-05 | 2800
6 | B6 | 182 | 0.00436 | 24000 | 11.9 | 0.00167 | 141000 | 31.9 | 0.00349 | 109000 | 45.3 | 0.00608 | 134000
7 | B7 | 16.4 | 0.00137 | 83300 | 93 | 0.002 | 21500 | 30.9 | 0.00176 | 57000 | 9.46 | 0.00171 | 181000
8 | B8 | 27.1 | 0.00044 | 16300 | 3.93 | 0.00021 | 53500 | 1.29 | 0.00018 | 140000 | 3.79 | 0.00038 | 100000
9 | B9 | 19.2 | 0.00181 | 94100 | 14.3 | 0.00157 | 110000 | 6.03 | 0.00017 | 28200 | 4.64 | 0.00081 | 175000
10 | B10 | 98.1 | 0.00092 | 9380 | 73.6 | 0.00056 | 7610 | 8.16 | 6e-05 | 7360 | 37 | 0.00015 | 4060
11 | B11 | 1.05 | 0.00012 | 115000 |  |  |  | 4.13 | 0.00023 | 55700 | 1.69 | 0.0003 | 177000
12 | B12 | 99.4 | 0.00091 | 9160 |  |  |  | 34.5 | 0.0002 | 5790 | 4.49 | 3e-05 | 6690
13 | B13 | 86.5 | 0.00058 | 6710 |  |  |  | 44.8 | 0.00043 | 9600 | 171 | 0.00166 | 9680
14 | B14 | 2.25 | 0.00026 | 116000 |  |  |  | 6.34 | 0.00114 | 180000 | 14.5 | 0.00133 | 91800
15 | B15 | 15.4 | 0.00169 | 110000 |  |  |  | 5.14 | 0.00064 | 125000 | 48.9 | 0.00123 | 25100
16 | B16 | 12.4 | 0.00192 | 155000 |  |  |  | 62.3 | 0.00816 | 131000 | 578 | 0.00544 | 9410
17 | B17 | 23.3 | 0.00018 | 7740 |  |  |  | 82.2 | 0.0006 | 7300 | 130 | 0.00117 | 9030
18 | B18 | 36.2 | 0.00356 | 98300 |  |  |  | 7.64 | 0.00126 | 165000 | 6.75 | 0.00124 | 184000
